Assay: yeast display, Sf9 membrane polyspecificity reagent, FACS + sequencing; frameworks hold sequencing errors
In short: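 Synthetic nanobody libraries on Saccharomyces cerevisiae BJ5465 were galactose-induced for 36–48 hours, stained 1 hour at 4 °C with 10% biotinylated, detergent-solubilized Sf9 membrane reagent and enriched on streptavidin microbeads. FACS then separated cells into low and high (top ~1%) gates by anti-HA (expression) and streptavidin (reagent binding) fluorescence. Genes were colony-PCR amplified, MiSeq 2 × 250 sequenced and CDR-length filtered. A clone's polyreactivity label is that of its gate of origin.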

Sequence | polyreactivity (PSR sort gate)
QVQRVESGGGLVQAGGSLRLSCAASGRTFSSYDLGWYRQAPGKERELVAAITSGGSTYYADSVKGRFTISRDNAKNTVYLQMNSLKPDDTAVYYCAADIYWWCSKDYDYWGQGTQVTVSS | high polyreactivity
QVQRVESGGGLVQAGGSLRLSCAASGRTFTYYAMGWYRQAPGKERELVAAISSRGGSTYYADSVKGRFTISRDNAKNTVYLQMNSLKPEDTAVYYCAAVLRFTRASRWPDFDYWGQGTQVTVSS | high polyreactivity
QVQRVESGGGLVQAGGSLRLSCAASGSIFASNAMGWYRQAPGKERELVADISGTTGSTYYADSVKGRFTISRDNAKNTVYLQMNSLKPEDTAVYYCAADLVWVSTSYYYWGQGTQVTVSS | low polyreactivity
QVQRVESGGGLVQAGGSLRLSCAASGSIFGPNTIGWSRQAPGKERDLVAAITRSGGSTYYADSVKGRFTISRDNAKNTVYLQMNSLKPEDTAVYYCAVGDGFEYDWGQGTQVTVSS | low polyreactivity
QVQRVESGGGLVQAGGSLRLSCAASGSIFKYYTMGLYRPAPGKERELVAYISSGGSTKYADSVKGRFTNSRDNAKNTVYLQMNSLKPEDTAVYYCAKRYYYFYPDYDFLGQGTQVTVSS | high polyreactivity
QVQRVESGGGLVQAGGSLRLSCAASGSIFRTYAMRWYRQAPGTERELVAAITSRGSSTYYADSVKGRFTISRDNAKNTVYLQMNSLKPEDTAVYSCPADYRTSYKGVLFSMYYWGQGTQVTVSS | high polyreactivity
QVQRVESGGGLVQAGGSLRLSCAASGSIFYRNVMGWYRPAPGKERELVAAISSGTSTYYADSVKGRFTISRDNAKNTVYLQMTSLKPEDPAVYYCAAEGPHYYGQRWYYGVDYWGQGTQVTVSS | low polyreactivity
QVQRVESGGGLVQAGGSLRLSCAASGSNFDKNPMGWYRQAPGKEREVVAAISRSGGSTNYADSVKGRFTISRDNAKTTDFLLMYSVKPEDTAVYYFAAQSRYWTYDSWGQGTQVNVSS | high polyreactivity
QVQRVESGGGLVQAGGSLRLSCAASGSTFLVNGMGWNRPAPGKERELVASITRDSSTYADSVKGRFTISRDNAKNTVYLQMNSLKPEDTAVYYCAATSRRRWSQQQGYGYYYWGQGTQVTVSS | high polyreactivity
QVQRVESGGGLVQAGGSLRLSCAASGYILPRYAMGWYIQAPGKERELVAAITSGGITSYADSVKGRFTISRDNAKNTVYLQMNSLKPEDTAVYYCAADWYVIYDYWGQGTQVTVSS | low polyreactivity
QVQRVESGGGLVQAGGSLRLSCAASGYTFEAYAMGWYRQAPGKERELVAAITINGGSTYYADSVKGRFTISRDNAKNTVYLQMNSLKPEDTAVYYCAADLFHRAGWYFAYGHWGLGTQVTVSS | low polyreactivity
QVQRVESGGGLVQAGGSLRLSCAASGYTFYFYDMGWYRQAPGKERELVAAITSSGGSTYYADSVKGRFTISRDNAKNTVYLQMNSLKPEDTAVYYCNALITYSSDYWGQGTQVTVSS | low polyreactivity
QVQRVESGGGLVQAGGSLRLSCAASGYTLGGYAMGWYRQAPGKERELVAAISSSGTSTYYADSVKGRFTISRDNAKNTVYLQMNSLKPEDTAVYYCNAYYLTYSAGDYWGQGTQVTVSS | low polyreactivity
QVQRVESGGGLVQAGGSLRLSCAASRITFSVNALRWYRHAPGKDRELVASISSGGSTNYADSVQGGFTISRDNAKNTVDLQMNSLKQEDTAVYYCNADVGFGSMDYCGQGTQVTVSS | low polyreactivity
QVQRVESGGGLVQAGGSLRLSCAASRITFTVNAMGWYRQAPGKERELVAAISWSGGSTYYADSVKGRFTISRDIAKNTVYLQMNSLKPEDTAVYYCNAVLYRFAYNYWGQGTQVTVSS | low polyreactivity
QVQRVESGGGLVQAGGSLRLSCAATGFTSGDYAMGWYRQAPGKERELVAAIDSDGSTNYADSVKGRFTISRDNAKNTVYLQMNSLKPEDTADYYCNAKRYGFFYWQGDYWGQGTQVTVSS | low polyreactivity
QVQRVESGGGLVQAGGSLRLSCDASGFTFVPYAMGWYRQAPGKERELVAAISWRRGSTYYADSVKGRFTISRDNAKNTVYLQMNSLKPEDTAVYYCARKGYHYSETSAIFALYDYWGQGTQVTVSS | high polyreactivity
QVQRVESGGGLVQAGGSLRLSCPASGFTFSRNVMGWYRQAPGKERELVADITLSGASTYYADSVKGRFTISRDNAKNTVYLQMNSLKPEDTAVYYCAADPYHWRWGWRHDYWGQGTQVTVSS | low polyreactivity
QVQRVESGGGLVQAGGSLRLTCAASGFTFVYYPMGWYRQAPGKVREWVAVISYSGTNTRYADSVKRRFTISRDNAKITVYLQMNSLKPEDTAVYYCAAEIYYVSWYDYWGQGTQVTVSS | high polyreactivity
QVQRVESGGGLVQAGGSLRLTCAASGRTFPGYAMGCYRQAPGKERELVAGISYRGGSTYYADSVKGRFTISRDNANNTVYLQMNSLKPEDSAVYYCALDYSRHKGDYWGQGTQVTVSS | low polyreactivity
QVQRVESGGGLVQARGSLRLSCAPSGSIFPYYAMGCYRPAPGKERELVAGISRRGGTTYYADSVKGRLTISRDNAKNTVYIQMHSLKPEDTAVYYCAARYGPYVDRYGYCGQGTQVTVSS | high polyreactivity
QVQRVESGLGLVQAGCSLRLTCAASGRIFDGYAMGWYRPARGKERELVATISSGGFTYYADSVKGSFTISRDNAKNTFYLQMNILKPEDTAVYYCAATPICSGGWGDYWGQGTQVTVSS | low polyreactivity

Sequence | polyreactivity (PSR sort gate)
QVQRVESWGGLVQAGCRLRLSCAASGIFRRYAMGWYRQAPGKERELVAAISSSGGSTDYADSVKGRFTISRDNAKNTVYLLMNSLKPEDTAVYYCNAYDLHGWWSYAYDYWGQGTQVTVSS | high polyreactivity
QVQRVETGGGLVQAGGSLRLSSAASVLTFKWYAMGWYRQSPGKERELVAAISRDGSTYYGDSVKVRFTISRDNAKNTVYLQMNSLKPEDTAVYYCAADIWPSSLLADEYDYWGQGTQVTVSS | high polyreactivity
QVQSVESAGVLVQAGGSLRLSCAASGFTFTWYAMGWYRKAPGKERELVATISRSGGRTYYADSVKGRFTISRDNAKNTVYLQMNSLKPEDTAVYYCAADTRNSPRYDYWGQGTQVTVSS | high polyreactivity
QVQSVESCGGLVQAGRSLRLSCAPSGSIFADYAMGWYSQAPGKERELVAVISRRGGTTYYADSVKGRFTISRDNAKNSVYLQMNSLKPEDTAVYYCAARRSFNEYDYWGKGTQVTVSS | high polyreactivity
QVQVEESGGGFDQAGGSLRLSCAASGSIFYYNAMGWYRQAPGKERELVAAISGRTGSTYYADSVKGRFTISRDNAKNTVYLQMNSLKPEDTAVYYCNALFLGYYYYWGQGTQVTVSS | high polyreactivity
QVQVVDSGGGLVQAGGSLRLSCAASGRTFIGNAMGWYRQAPGKERELVATITTSAGTTYYADSVKGRITISRDNAKITVYVQMLSLKPEDTAVYYCAADASQSEGDYWGQGTQVTVAS | high polyreactivity
QVQVVESGAGLVQAGGILRLRCASSGFILYPNAMGWYRQAPGKERELVAAITESDGITYYADSVKGRFTISRDNAKNTVYLQMNSLKPEDTAVYYCNTGFSYTYDYWGQGTQVTVSS | low polyreactivity
QVQVVESGGCLVQAGGSLRLSCAASGRMFRRYAMGWYRQAPGKERELVAAISSGGSTYYADSVKGRFTISRDNAKNTVYLQMNSLKPEDTAVYYCNAKVGAYLNYGYWGQGTQVTVSS | low polyreactivity
QVQVVESGGGIVHAGGSLRLSCAASGFIFLVNGMVWYRQAPGKERELVAAISFDGGSTYADSVKGRFTISRDNAKNTVYLLMTSLKPEDTAVFYCATDVRGVDGEDYSWGQGTQVTVSS | low polyreactivity
QVQVVESGGGLDQAGGSLRLSCAASGRIFFYYGMGWYRQAPGTERELVASISRGGSTTYADSVKGRFTISRDNAMKTVYLQMNSLKPEDSAVYYCARRYTQIYSSNYGYWGQGTEVTVSS | high polyreactivity
QVQVVESGGGLFQAGGSLRLSSAASGSIFARNALGWYRQAPGKERDLVAGITRSTGDTYYADSVKGRFTISRDNAKYTVSFQMNSLKQEDTAVYYCARDGRRTPYKYEYWGQGTQVTVSS | low polyreactivity
QVQVVESGGGLVQAGASLRLSCAASGRTCLHKAMGWYRQAPGKERELVAAIDSRGTTHYADSVKGRFTISRDNAKNTVYLQMNSLKPEDTAVYYCAARPTRGHWWYAYWGQGTQVTVSS | low polyreactivity
QVQVVESGGGLVQAGGSLGLSCAASGGTFGYYAMGWYRQAPGKERELVAAINRSDGGTYYADSVKGRFTISRDKAKNTVYLQMTSLKPEDTAVYYCNADDFYYDEPYDYWGQGTQVTVSS | low polyreactivity
QVQVVESGGGLVQAGGSLRLRCAASGRSFVRNAMGWYRQAPGKEREFVAAINSGGSTYYADSVKGRFTISRDNAKNTVYLQMNSLKPEDTAVYYCAAELHIYYSWYWYDYWGQGTQVTVSS | high polyreactivity
QVQVVESGGGLVQAGGSLRLSCAASGFISSYYAMGWYRQAPGKERELVAAITSGGRTYYADSVKGRFTISRDNAKNTVYLQMNSLKPEDTAVYYCAKYSRTKAFDYWGQGTQVTVSS | high polyreactivity
QVQVVESGGGLVQAGGSLRLSCAASGRIFAKYAMGWYIQAPGKERELVAAIDLSDGSTSYADSVKGRFTISRDNAKNTVYLQMNSLKPEDTAVYYCAKTWANVYAGAHDYWGQGTQVTVSS | low polyreactivity
QVQVVESGGGLVQAGGSLRLSCAASGRIFTGYAMGWYSQAPGTERELVAAISRGGSTNYADSVKGRFTISRDNAKNTVYLQMNSLKPEDTAVYYCAAGVHWDRGDYWGQGTQVTVSS | low polyreactivity
QVQVVESGGGLVQAGGSLRLSCAASGRTFGVYAMGWSRQAPGKERELVAVINRSGGSTYYADSVKGRFTISRDNAKYTVYLQMNSLNPEDTAVYSCDKASAYSAYDDHDDYWGHGTQVTVSS | high polyreactivity
QVQVVESGGGLVQAGGSLRLSCAASGSIFPFYVMGWYRQAPGKEREFVATISSRGGSTYYADSVKGRFTISRDNAKNTVYLQMNSLKPEDTAVYYCAAGWYRNDWGQRLHTYYYWGQGTQVTVSS | high polyreactivity
QVQVVESGGGLVQAGGSLRLSCAASGSTFVRNAMGWYRQAPGKDRELVAAITTSGARTYYADSVKGRFTISRDNAKHTVYLQMNSLKPEDTAVYYCAAEYKGRTYRFDYWGQGTQVTVSS | low polyreactivity
QVQVVESGGGLVQAGGSLRLSCAASGYIFDYYAMGWYRQAPGKERELVAAISSSGGTTYYADSVKGRFTISRDNAKNTVYLQMNSLKPEDTAVYYCAADAVLPRSDYWGQGTQVTVSS | high polyreactivity

From the nanobody polyreactivity screen of Harvey et al. (2022)
